# Test results taken from publication PMC4132270, “Compartmentalized self-replication under fast PCR cycling conditions yields Taq DNA polymerase mutants with increased DNA-binding affinity and blood resistance”.
# B1: hairpin primer-template (structured_DNA)
# DNA: CTCCAGACACGACGCAGTTGCCCGATGGTCGACGTTCGCGAAAGCGAACGTCGACCATCGGGCAACT
# modifications: 3' end blocked with dideoxy TMP (3' ddT; unclear whether the printed 3' T is the ddT or it is added)
# Columns and labels:
# [1] = molecular target: Taq DNA polymerase (wild type) (Thermus aquaticus, UniProt P19821 1-832); experiment: EMSA; 50 mM KCl (enzyme's KCl optimum); 0.25 nM hairpin, 0.5-1000 nM enzyme, 1x Taq buffer (50 mM KCl for wild type, 95 mM KCl for mutants; full composition and pH not stated for this assay), 37 C, 30; conditions: protein: recombinant, tags: none (His tag removed, pET11), label: 5' 33P, recessed 3' end, 5' overhang
# Taq G59W = Taq G59W (Thermus aquaticus, UniProt P19821 1-832, G59W); experiment: EMSA; 95 mM KCl (Methods: all assays with Taq mutants); text gives 91 nM; 0.25 nM hairpin, 0.5-1000 nM enzyme, 1x Taq buffer (50 mM KCl for wild type, 95 mM KCl for mutants; full composition and pH not stated for this assay), 37 C, 30; conditions: protein: recombinant, label: 5' 33P, recessed 3' end, 5' overhang
# Taq E507K = Taq E507K (Thermus aquaticus, UniProt P19821 1-832, E507K); experiment: EMSA; 95 mM KCl; 0.25 nM hairpin, 0.5-1000 nM enzyme, 1x Taq buffer (50 mM KCl for wild type, 95 mM KCl for mutants; full composition and pH not stated for this assay), 37 C, 30; conditions: protein: recombinant, label: 5' 33P, recessed 3' end, 5' overhang
binder,measurement,setting,value
B1,Kd,[1],102 nM
same,Kd,Taq G59W,91.6 nM
same,Kd,Taq E507K,1.1 nM
